Laboratory results taken from patent publication US10351618B2, “UTI fusion proteins” (Takeda Pharmaceutical Company Limited, priority 2014, dated 2019).

Assays:
chymotrypsin = assay: Protease inhibition at Reaction Biology Corporation: chymotrypsin; type: biochemical; conditions: FIG. 6, FIG. 7
Method: (§1) Measurement of the inhibition of other proteases by UTI-Fc1 was also measured at Reaction Biology Corporation (Malvern, Pa.). […] FIG. 7 lists the inhibitory constants of UTI-Fc1 for a variety of proteases.

plasmin = plasmin (Homo sapiens, UniProt P00747); assay: Protease inhibition at Reaction Biology Corporation: plasmin; type: biochemical; conditions: FIG. 7
Sequence of plasmin (P00747 581-810 limits assumed, species assumed): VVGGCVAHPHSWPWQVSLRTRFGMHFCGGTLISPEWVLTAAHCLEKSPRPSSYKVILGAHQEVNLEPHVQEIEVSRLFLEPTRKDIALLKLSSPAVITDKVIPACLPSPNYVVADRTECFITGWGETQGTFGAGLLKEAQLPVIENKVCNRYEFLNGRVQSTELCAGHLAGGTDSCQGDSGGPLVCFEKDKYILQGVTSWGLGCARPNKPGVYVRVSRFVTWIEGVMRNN
Sequence of plasmin (P00747 97-580 partner limits assumed, species assumed): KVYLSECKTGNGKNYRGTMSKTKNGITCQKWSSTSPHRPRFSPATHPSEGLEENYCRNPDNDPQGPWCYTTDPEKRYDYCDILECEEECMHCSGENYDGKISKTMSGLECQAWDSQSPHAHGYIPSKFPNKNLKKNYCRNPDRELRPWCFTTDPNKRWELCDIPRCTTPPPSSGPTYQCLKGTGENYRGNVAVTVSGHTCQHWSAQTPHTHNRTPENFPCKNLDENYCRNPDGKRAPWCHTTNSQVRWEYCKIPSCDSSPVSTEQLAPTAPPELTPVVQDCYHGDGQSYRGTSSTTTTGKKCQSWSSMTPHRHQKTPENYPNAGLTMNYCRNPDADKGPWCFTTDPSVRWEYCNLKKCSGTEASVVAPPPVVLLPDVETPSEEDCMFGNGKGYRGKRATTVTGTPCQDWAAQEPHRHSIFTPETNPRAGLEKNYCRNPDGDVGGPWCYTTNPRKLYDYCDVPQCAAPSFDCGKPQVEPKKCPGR
Method: as §1

caspase-1 = molecular target: T1, caspase-1 (Homo sapiens, UniProt P29466); assay: Protease inhibition at Reaction Biology Corporation: caspase-1; type: biochemical; conditions: FIG. 7
T1 sequence (P29466 120-404): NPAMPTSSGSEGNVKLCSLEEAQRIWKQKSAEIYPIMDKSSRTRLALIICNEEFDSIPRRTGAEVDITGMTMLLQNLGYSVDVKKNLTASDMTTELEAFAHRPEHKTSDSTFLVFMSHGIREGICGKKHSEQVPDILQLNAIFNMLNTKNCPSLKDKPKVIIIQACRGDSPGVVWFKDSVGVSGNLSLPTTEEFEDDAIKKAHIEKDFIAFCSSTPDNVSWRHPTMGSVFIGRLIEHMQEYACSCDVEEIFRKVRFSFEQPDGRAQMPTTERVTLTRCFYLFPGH
Method: as §1

cathepsin C = cathepsin C (Homo sapiens, UniProt P53634); assay: Protease inhibition at Reaction Biology Corporation: cathepsin C; type: biochemical; conditions: FIG. 7
Sequence of cathepsin C (P53634 25-463, species assumed): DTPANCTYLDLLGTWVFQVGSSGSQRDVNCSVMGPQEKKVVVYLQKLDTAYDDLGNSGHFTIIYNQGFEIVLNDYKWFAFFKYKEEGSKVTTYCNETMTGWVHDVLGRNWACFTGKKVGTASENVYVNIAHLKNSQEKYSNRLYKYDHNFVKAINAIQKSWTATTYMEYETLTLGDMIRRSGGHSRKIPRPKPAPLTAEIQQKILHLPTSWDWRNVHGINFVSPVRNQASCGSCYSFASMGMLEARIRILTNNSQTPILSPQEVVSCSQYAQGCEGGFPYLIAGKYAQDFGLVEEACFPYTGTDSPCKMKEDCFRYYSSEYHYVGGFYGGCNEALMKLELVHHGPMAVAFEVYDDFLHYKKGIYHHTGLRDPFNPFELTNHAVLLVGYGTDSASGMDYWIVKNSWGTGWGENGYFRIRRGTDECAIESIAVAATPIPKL
Method: as §1

papain = molecular target: T2, papain (Carica papaya, UniProt P00784); assay: Protease inhibition at Reaction Biology Corporation: papain; type: biochemical; conditions: FIG. 7
T2 sequence (P00784 134-345): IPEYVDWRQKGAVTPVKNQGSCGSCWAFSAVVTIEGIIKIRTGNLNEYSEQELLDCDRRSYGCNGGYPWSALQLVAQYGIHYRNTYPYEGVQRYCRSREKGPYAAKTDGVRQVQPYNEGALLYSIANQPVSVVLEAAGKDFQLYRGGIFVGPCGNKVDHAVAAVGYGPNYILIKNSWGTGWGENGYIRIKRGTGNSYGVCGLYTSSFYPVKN
Method: as §1

[1] = Thermal stability by differential scanning calorimetry; type: physicochemical
Method: Assays were performed to measure the thermal and real-time stability. […] Thermal stability was measured by differential scanning calorimetry on a Microcal VP-DSC calorimeter. Samples were prepared at 1 mg/ml and buffered in 0.25 mM Tris pH7.4, 0.13M NaCl and 0.0027M KCl. Samples were heated from 25° C. to 110° C. at a rate of 200° C. per hour. UTI-Fc1 was compared to Application Publication Number CN 103044554 A, SEQ ID's 2 and 6, which comprise an IgG2 or IgG1 Fc domain respectively.

[2] = Real-time stability (SEC, A280, PAGE) in TBS pH7.4; type: physicochemical
Method: Real-time stability measurements were performed by incubating SEQ ID NO:1 (UTI-Fc1) or CN 103044554 A, SEQ IDS 2 or 6 at 2-8° C., and 40° C. for 0, 2 and 4 weeks in TBS, pH7.4 buffer. The formation of higher and lower molecular weight species was determined by size exclusion chromatography (SEC) and visualized with polyacrilamide gel electrophoresis (PAGE). The concentration of each UTI-Fc was also monitored by determination of the absorbance of the solution at 280 nm (A280), using extinction coefficients determine by the protein composition. The UTI-Fc molecules produce two, partially overlapping peaks, when analyzed by SEC. The percentage peak area in each UTI-Fc sample measured by SEC is reported in Table 9 at time=0 weeks, 2 weeks, and 4 weeks. Also shown is the percentage change in concentration measured by A280 (% A (mg/ml)) at time=2 weeks and 4 weeks. The initial TO concentration of each sample was UTI-Fc1=33.5 mg/mL, CN 103044554 A SEQ ID 2=8.5 mg/mL, and CN 103044554 A SEQ ID 6=5.6 mg/mL. A variability of 3% is typical for SEC and 15% for individual UV measurements.

C5a = assay: LPS induced C5a in C3H mice (complement inhibition in vivo); parameters: species or system C3h/HeJ mice; conditions: 4 hours post LPS dose, p<0.05, FIG. 10
Method: UTI-Fc1 (SEQ ID NO:1) affects on the complement system were measured in vivo. Female, C3h/HeJ mice were purchased from Jackson Laboratories. Animals are dosed according to the experimental design Table 10. Animals were injected i.p. (100 ul/mouse) 15 minutes post dose with LPS at time zero. Animals were euthanized at 2 and 4 hours post LPS injection by CO2 overdose and blood was collected by cardiac puncture. Blood was transferred to serum separator microtubes and allowed to clot at room temperature for 30 minutes. Subsequently, microtubes were centrifuged at 12,000 rpm for 5 minutes and serum was removed and aliquoted to a 96 well plate. Rosmarinic acid was used as a positive control and used as 3 mg/ml in saline. The 96 well plate was frozen at −20° C. Serum samples were analyzed for C5a content by duoset. Statistical significance was determined using Prism graphing software and effects were considering statistically significant if p<0.05.

Human pancreatic trypsin = molecular target: T3, Human pancreatic trypsin (Homo sapiens, UniProt P07477); assay: In vitro enzymatic assay for trypsin inhibition; type: biochemical; conditions: human pancreatic trypsin 1.5 nM, 15 min pre-incubation, FIG. 5
T3 construct: purchased Athens Research & Technology, Inc
Method: Solutions of UTI-Fc1 at various concentrations 200 nM final concentration) are prepared in 50 mM HEPES, 150 mM NaCl, 20 mM CaC12 and 0.01% Brij L23, pH 7.4. Activity assays were performed in Greiner 384-well small volume plates. All steps were conducted at ambient temperature.
Human pancreatic trypsin (1.5 nM final concentration) (Athens Research & Technology, Inc) was added to the dilutions then pre-incubated with the test UTI-Fc for 15 minutes. Next, the reaction was initiated with 100 μM (final) of substrate N[…]-Benzoyl-L-arginine-7-amido-4-methylcoumarin hydrochloride SIGMA B7260-25 MG. The reaction mixture total volume was 20 µl. Trypsin activity was determined via fluorescence. For example, the fluorescence intensity was determined in kinetic mode over a window of 30 to 60 minutes on a BMG PHERAstar FS or PHERAstar plus using an excitation wavelength of 370 nm and an emission wavelength of 470 nm. Trypsin activity was linearly proportional to the change in fluorescence observed (final−initial). […]
Where: Fi was the observed fluorescence at a given concentration of test UTI-Fc.
Fp was the observed fluorescence of a positive control i.e., the average value of 2 to 6 assays in the absence of Trypsin.
Fn was the observed fluorescence of a negative control i.e., the average value of 2 to 6 assays of Trypsin in the presence of vehicle alone. […]

[3] = system: trypsin-induced IL-6 production in BEAS2B cells; assay: Inhibition of trypsin-induced IL-6 release in BEAS2B cells; type: cell-based, human; conditions: 100 nM trypsin, 8 hours, FIG. 8
Method: UTI-Fc1 inhibition of cytokine release was measure in a cell-based assay. BEAS2B cells were seeded at the density of 20,000 cells/well in 96 well plate and cultured using complete BEGM Bullet Kit (Lonza) in CO2 incubator. After 24 hours, the culture media were replaced with plain DMEM for starvation and cells were cultured overnight. Then cells were incubated with fresh plain DMEM containing 100 nM trypsin with various concentrations of human urine UTI or recombinant UTI-Fc1 proteins. After 8 hours, culture supernatants were collected and IL-6 protein levels were assessed using human IL-6 DuoSet (R&D Systems).

[4] = rodents and humans (Fries et al 2000); cited from earlier work
Factor Xa = Factor Xa (Homo sapiens, UniProt P00742); conditions: full-length UTI (Morishita et al. 1994); cited from earlier work
Sequence of Factor Xa (P00742 235-488 limits assumed): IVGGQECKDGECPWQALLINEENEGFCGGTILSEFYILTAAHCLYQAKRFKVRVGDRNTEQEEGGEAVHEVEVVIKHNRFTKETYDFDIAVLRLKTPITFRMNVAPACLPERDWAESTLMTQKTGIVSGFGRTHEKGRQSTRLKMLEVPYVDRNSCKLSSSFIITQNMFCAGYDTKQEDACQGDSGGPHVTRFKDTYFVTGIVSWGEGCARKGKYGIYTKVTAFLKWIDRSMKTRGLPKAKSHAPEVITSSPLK
Sequence of Factor Xa (P00742 41-179 partner limits assumed): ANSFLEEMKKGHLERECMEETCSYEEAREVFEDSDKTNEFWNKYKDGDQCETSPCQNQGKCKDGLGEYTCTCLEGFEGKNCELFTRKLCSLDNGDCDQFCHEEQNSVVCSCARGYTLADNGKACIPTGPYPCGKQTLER

plasma kallikrien = plasma kallikrien (Homo sapiens, UniProt P03952); conditions: full-length UTI (Morishita et al. 1994); cited from earlier work
Sequence of plasma kallikrien (P03952 20-638): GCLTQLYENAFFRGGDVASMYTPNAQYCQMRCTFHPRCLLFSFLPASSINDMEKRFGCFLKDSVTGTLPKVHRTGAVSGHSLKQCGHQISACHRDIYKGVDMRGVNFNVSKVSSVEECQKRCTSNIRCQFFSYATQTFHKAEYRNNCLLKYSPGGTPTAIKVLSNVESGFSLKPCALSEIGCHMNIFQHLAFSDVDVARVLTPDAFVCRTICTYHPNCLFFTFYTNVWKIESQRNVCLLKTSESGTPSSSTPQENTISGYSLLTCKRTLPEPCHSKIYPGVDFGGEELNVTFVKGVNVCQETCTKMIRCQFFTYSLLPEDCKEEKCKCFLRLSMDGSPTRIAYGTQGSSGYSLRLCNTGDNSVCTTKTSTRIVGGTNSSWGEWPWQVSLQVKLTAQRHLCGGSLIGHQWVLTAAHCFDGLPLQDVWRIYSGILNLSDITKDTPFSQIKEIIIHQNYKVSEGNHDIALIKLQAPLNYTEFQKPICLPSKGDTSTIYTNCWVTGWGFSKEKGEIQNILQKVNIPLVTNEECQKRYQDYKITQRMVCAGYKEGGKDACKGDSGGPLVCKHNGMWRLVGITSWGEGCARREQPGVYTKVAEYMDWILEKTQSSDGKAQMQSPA

[5] = 1 mg/ml, Tris pH7.4, 25° C. to 110° C. at 200° C. per hour

In the case of “UTI-Fc1: UTI-Fc fusion protein, human UTI domain linked to wild type IgG1 Fc, SEQ ID NO: 1”, the inhibition of chymotrypsin (chymotrypsin) is reported as “moderately”, the inhibition of plasmin (plasmin) is reported as “moderately” and the “inhibition of caspase-1” value (caspase-1) is reported as “weak inhibition”. For the same molecule, the “inhibition of cathepsin C” value (cathepsin C) was “weak inhibition”, the inhibition of papain (papain) was “weak inhibition” and the “thermal stability compared to the UTI fusion proteins of CN 103044554A” value [1] was “greater thermal stability”. For the same molecule, the “DSC Tm1” value [1, 5] was 70.86 °C, the “DSC Tm2” value [1, 5] was 85.79 °C and the “SEC percentage peak area Peak1” value ([2]; 0 weeks) was 35.7%. For the same molecule, the “SEC percentage peak area Peak2” value ([2]; 0 weeks) was 64.3%, the “% Δ (mg/ml), percentage change in concentration by A280” value (from here on “% Δ (mg/ml), percentage change”) ([2]; 2 weeks at 2-8° C.) was 9.2% and the “SEC percentage peak area Peak1” value ([2]; 2 weeks at 2-8° C.) was 36.2%. For the same molecule, the “SEC percentage peak area Peak2” value ([2]; 2 weeks at 2-8° C.) was 63.8%, the “% Δ (mg/ml), percentage change” value ([2]; 2 weeks at 40° C.) was 0.2% and the “SEC percentage peak area Peak1” value ([2]; 2 weeks at 40° C.) was 37.1%. For the same molecule, the “SEC percentage peak area Peak2” value ([2]; 2 weeks at 40° C.) was 62.9%, the “% Δ (mg/ml), percentage change” value ([2]; 4 weeks at 2-8° C.) was 1.2% and the “SEC percentage peak area Peak1” value ([2]; 4 weeks at 2-8° C.) was 36.1%. For the same molecule, the “SEC percentage peak area Peak2” value ([2]; 4 weeks at 2-8° C.) was 63.9%, the “% Δ (mg/ml), percentage change” value ([2]; 4 weeks at 40° C.) was 11.9% and the “SEC percentage peak area Peak1” value ([2]; 4 weeks at 40° C.) was 36.8%. The “SEC percentage peak area Peak2” value ([2]; 4 weeks at 40° C.) was 63.2%, the “serum C5a” value (C5a; 20 mg/kg iv) was “significantly reduced” and the “serum C5a” value (C5a; 50 mg/kg iv) was “significantly reduced”. The “serum C5a” value (C5a; 100 mg/kg iv) was “significantly reduced”.

B1: UTI: Urinary Trypsin Inhibitor, protease inhibitor of about 40 kD present in human urine and blood (protein)
chain: AVLPQEEEGSGGGQLVTEVTKKEDSCQLGYSAGPCMGMTSRYFYNGTSMACETFQYGGCMGNGNNFVTEKECLQTCRTVAACNLPIVRGPCRAFIQLWAFDAVKGKCVLFPYGGCQGNGNKFYSEKECREYCGVPGDGDEELLRFSN
For B1, the IC50 (Human pancreatic trypsin) is given as about 3 nM, the “IC50 of trypsin-induced IL-6 production” value [3] is given as 0.40 µg/mL and the half-life [4] is given as 4 to 30 min. The “inhibition of Factor Xa” value (Factor Xa) was “does not show inhibition” and the “inhibition of plasma kallikrien” value (plasma kallikrien) was “does not show inhibition”.
